Measured values published in patent publication US20030004317A1 (GlaxoSmithKline, published 2003).
Each block holds one molecule with its values, some of them ahead of it.

Columns and labels:
[1] = biological target: native cell surface receptor on R-SMC; experiment: cell-based or functional assay
[2] = biological target: T1, human αvβ3 receptor protein purified from human placenta (human, UniProt P06756 31-1048; P05106 27-788); experiment: BIAcore, receptor immobilized in a hybrid bilayer membrane, mAb in solution (100, 25, 6 nM)
T1 construct: mature; Detergent-solubilised whole heterodimer from tissue; coated on plates (ELISA), inserted in a hybrid bilayer membrane or passed in solution (BIAcore); also called vitronectin receptor; αβ3 receptor
T1 sequence (P06756 31-1048, form in doubt, chain 1 of 2): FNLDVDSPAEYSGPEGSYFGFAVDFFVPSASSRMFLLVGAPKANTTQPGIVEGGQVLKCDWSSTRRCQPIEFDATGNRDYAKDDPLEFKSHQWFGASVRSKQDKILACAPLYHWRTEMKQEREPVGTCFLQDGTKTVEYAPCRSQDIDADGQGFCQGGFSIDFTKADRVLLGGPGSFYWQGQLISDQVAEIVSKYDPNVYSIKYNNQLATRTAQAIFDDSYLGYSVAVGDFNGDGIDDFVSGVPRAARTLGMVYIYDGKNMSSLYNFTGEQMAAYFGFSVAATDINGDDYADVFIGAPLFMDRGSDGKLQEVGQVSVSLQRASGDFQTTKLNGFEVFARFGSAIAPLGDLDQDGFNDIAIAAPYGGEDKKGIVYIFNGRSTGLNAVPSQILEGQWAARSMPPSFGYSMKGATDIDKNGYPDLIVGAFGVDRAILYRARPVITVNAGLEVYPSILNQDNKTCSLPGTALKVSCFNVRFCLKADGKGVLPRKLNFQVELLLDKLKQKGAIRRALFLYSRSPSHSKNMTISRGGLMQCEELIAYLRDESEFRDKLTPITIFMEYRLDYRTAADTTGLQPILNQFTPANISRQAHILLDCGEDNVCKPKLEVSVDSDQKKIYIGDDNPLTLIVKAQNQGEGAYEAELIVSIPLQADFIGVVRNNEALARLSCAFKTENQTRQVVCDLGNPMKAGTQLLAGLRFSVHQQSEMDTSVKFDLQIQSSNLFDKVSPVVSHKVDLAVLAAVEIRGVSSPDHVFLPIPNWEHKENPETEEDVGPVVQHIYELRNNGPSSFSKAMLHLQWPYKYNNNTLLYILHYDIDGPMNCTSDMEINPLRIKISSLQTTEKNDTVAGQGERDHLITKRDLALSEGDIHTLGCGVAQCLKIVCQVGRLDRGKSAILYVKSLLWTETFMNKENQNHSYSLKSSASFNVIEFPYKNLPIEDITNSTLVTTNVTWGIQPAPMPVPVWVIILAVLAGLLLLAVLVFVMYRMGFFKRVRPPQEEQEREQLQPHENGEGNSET
T1 sequence (P05106 27-788, form in doubt, chain 2 of 2): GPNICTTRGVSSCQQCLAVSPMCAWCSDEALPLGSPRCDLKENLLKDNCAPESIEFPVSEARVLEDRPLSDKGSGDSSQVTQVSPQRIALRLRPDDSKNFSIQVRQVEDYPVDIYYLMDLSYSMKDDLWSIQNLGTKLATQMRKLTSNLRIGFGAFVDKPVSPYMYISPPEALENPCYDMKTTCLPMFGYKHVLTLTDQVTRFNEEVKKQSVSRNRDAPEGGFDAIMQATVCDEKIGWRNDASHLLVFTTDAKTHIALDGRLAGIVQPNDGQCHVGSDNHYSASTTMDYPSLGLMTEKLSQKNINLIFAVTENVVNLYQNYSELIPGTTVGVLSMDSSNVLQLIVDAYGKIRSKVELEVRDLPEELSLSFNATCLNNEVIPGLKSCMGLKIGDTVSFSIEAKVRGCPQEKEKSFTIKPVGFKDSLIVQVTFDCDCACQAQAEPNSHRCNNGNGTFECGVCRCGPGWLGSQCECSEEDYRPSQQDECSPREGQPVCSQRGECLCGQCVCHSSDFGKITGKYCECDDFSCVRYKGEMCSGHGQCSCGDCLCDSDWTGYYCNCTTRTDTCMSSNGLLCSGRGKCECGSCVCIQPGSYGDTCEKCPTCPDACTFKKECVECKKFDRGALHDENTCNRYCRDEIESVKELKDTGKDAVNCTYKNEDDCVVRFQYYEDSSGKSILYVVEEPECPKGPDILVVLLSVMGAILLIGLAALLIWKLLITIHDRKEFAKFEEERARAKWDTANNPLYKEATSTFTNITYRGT
Protocol: (§1) The receptors was immobilized by inserting it into a phospholipid vesicle and producing a hybrid bilayer membrane on a hydrophobic sensor surface. […] Samples of the mAb were passed over this surface and the rates at which they bound and then dissociated from the surface were measured and analyzed using software provided with the instrument.

[3] = biological target: T1, human αvβ3 receptor protein purified …; experiment: BIAcore, receptor immobilized in a hybrid bilayer membrane, mAb in solution
Protocol: as §1

[4] = biological target: T2, human αvβ5 receptor protein purified from human placenta (human, UniProt P06756 31-1048; P18084 24-799); experiment: BIAcore, receptor immobilized in a hybrid bilayer membrane, mAb in solution (100, 25, 6 nM)
T2 construct: mature; Detergent-solubilised whole heterodimer from tissue
T2 sequence (P06756 31-1048, form in doubt, chain 1 of 2): as the sequence (P06756 31-1048, form in doubt, chain 1 of 2) above
T2 sequence (P18084 24-799, form in doubt, chain 2 of 2): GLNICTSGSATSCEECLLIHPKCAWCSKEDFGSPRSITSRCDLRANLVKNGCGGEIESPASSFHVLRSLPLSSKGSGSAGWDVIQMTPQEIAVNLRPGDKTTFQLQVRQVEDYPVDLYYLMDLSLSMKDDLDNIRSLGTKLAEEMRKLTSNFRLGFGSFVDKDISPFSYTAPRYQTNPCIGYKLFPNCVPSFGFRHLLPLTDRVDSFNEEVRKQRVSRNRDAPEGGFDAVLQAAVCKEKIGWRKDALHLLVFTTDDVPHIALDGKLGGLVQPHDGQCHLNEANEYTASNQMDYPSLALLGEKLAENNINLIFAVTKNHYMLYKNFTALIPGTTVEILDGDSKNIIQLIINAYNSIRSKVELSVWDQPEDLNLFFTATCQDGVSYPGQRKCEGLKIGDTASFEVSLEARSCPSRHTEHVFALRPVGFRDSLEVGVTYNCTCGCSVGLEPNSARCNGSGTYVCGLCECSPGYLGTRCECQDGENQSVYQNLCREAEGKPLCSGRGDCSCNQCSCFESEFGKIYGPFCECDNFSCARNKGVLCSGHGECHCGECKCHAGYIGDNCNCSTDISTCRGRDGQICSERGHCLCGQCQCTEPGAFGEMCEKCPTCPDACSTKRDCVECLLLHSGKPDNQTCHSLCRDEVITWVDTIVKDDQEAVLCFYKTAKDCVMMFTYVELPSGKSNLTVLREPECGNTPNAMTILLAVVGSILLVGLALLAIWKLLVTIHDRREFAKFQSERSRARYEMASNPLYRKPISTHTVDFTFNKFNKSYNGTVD
Protocol: as §1

Inhib (%) R-SMC (50 µg/ml) [1]: 43%
Molecule: murine monoclonal antibody LM609

Inhib (%) R-SMC (50 µg/ml) [1]: 66%
Kd [2]: 1.3 nM
B1: murine monoclonal antibody D12 (antibody, V domains shown)
VH: EIQLQQSGPEVVKPGASVKVSCKASGYAFTSYNMYWVKQSHGKSLEWIGYIDPYNGDTFYNQKFKGKATLTVDKSSSTAYMHLNSLTSEDSAVFYCARQNYGSFAYWGQGTLVTVSA
VL: DIVLTQSPATLSVTPGDSVSLSCRASQSISNHLHWYQQRSHESPRLLIKYASQSISGIPSRFRGSGSGTDFTLNINILETEDFGMYFCQQSNSWPFTFGSGTNLEIKR

fold higher binding affinity (KD) than D12 [3]: ~5 fold
Kd [2]: 0.29 nM
Kd [4]: 0.11 nM
B2: murine monoclonal antibody B9 (antibody, mouse IgG1, V domains shown)
VH: QVQLQQSGAELMKPGASVKISCKATGYTFSSYWIEWVKQRPGHGLEWIGEILPRSGNTNYNEKFKGKATFTAETSSNTAYMQLSSLTPEDSAVYYCSSRGVRGSMDYWGQGTSVTVSS
VL: DIQMTQTTSSLSASLGDRVTITCRSSQDISNFLNWYQQKPDGTVKLLIYYTSTLHSGVPSRFSGSGSGTDYSLTISNLEQEDIATYFCQQGNTLPWTFGGGTNLEIKR
notes: also called mAb B9; Murine B9
